Laboratory results as given in patent US20210139548A1 (published 2021).
*1 amine or outer side, *2 acyl side, *3 side chain or, on linkers, in order; H or OH if unused. Side-chain parts run from the residue outwards. The star is where a group is joined. C18 diacid = O=C(O)CCCCCCCCCCCCCCCCC(=O)*; γGlu = O=C(O)[C@H](CCC(=O)[*:2])N[*:1]; Isovaleryl = CC(C)CC(=O)*; AEEA = NCCOCCOCC(=O)O

T1: human neuropeptide Y2 receptor (human, UniProt P49146 1-381)
T1 construct: whole, on cells; also called hNPY2 receptor; hNPY2-R
T1 sequence (looked up): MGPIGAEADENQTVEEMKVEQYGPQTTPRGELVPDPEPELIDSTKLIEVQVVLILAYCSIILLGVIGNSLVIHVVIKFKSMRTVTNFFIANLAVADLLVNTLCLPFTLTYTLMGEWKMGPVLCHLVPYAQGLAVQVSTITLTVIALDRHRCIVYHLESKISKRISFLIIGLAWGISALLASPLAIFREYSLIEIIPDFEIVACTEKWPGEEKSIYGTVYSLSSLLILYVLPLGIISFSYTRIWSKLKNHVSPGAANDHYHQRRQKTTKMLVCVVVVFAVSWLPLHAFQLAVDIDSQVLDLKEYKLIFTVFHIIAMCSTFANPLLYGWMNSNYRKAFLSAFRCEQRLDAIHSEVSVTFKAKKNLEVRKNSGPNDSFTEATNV


Target: T1, human neuropeptide Y2 receptor
Assay: radioligand competition (125I-PYY(1-36)), hNPY2R membranes
Method in brief: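 Commercial human Y2 receptor membranes (0.5 μg protein/well) were incubated with peptide for 2 h at room temperature in 50 mM HEPES, 5 mM MgCl₂, 1 mM CaCl₂, pH 7.4, with 0.2% ovalbumin. Bound radioligand was separated on PEI-soaked GF/C filters and counted by scintillation, and IC₅₀ came from nonlinear sigmoidal regression.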

Row | Binder | Ki
1 | Isovaleryl-APEK([AEEA-AEEA-γGlu-C18 diacid])PEEEASPEELQRYYVSTRHYYNWLTRQRY-NH2 (SMILES CC(C)CC(=O)N[C@@H](C)C(=O)N1CCC[C@H]1C(=O)N[C@@H](CCC(=O)O)C(=O)N[C@@H](CCCCNC(=O)COCCOCCNC(=O)COCCOCCNC(=O)CC[C@H](NC(=O)CCCCCCCCCCCCCCCCC(=O)O)C(=O)O)C(=O)N1CCC[C@H]1C(=O)N[C@@H](CCC(=O)O)C(=O)N[C@@H](CCC(=O)O)C(=O)N[C@@H](CCC(=O)O)C(=O)N[C@@H](C)C(=O)N[C@@H](CO)C(=O)N1CCC[C@H]1C(=O)N[C@@H](CCC(=O)O)C(=O)N[C@@H](CCC(=O)O)C(=O)N[C@@H](CC(C)C)C(=O)N[C@@H](CCC(N)=O)C(=O)N[C@@H](CCCNC(=N)N)C(=O)N[C@@H](Cc1ccc(O)cc1)C(=O)N[C@@H](Cc1ccc(O)cc1)C(=O)N[C@H](C(=O)N[C@@H](CO)C(=O)N[C@H](C(=O)N[C@@H](CCCNC(=N)N)C(=O)N[C@@H](Cc1c[nH]cn1)C(=O)N[C@@H](Cc1ccc(O)cc1)C(=O)N[C@@H](Cc1ccc(O)cc1)C(=O)N[C@@H](CC(N)=O)C(=O)N[C@@H](Cc1c[nH]c2ccccc12)C(=O)N[C@@H](CC(C)C)C(=O)N[C@H](C(=O)N[C@@H](CCCNC(=N)N)C(=O)N[C@@H](CCC(N)=O)C(=O)N[C@@H](CCCNC(=N)N)C(=O)N[C@@H](Cc1ccc(O)cc1)C(N)=O)[C@@H](C)O)[C@@H](C)O)C(C)C) [Compound 146] | 5.05 nM
2 | Isovaleryl-APEK([AEEA-AEEA-γGlu-C18 diacid])AEEDASPEELQQYYVSLRHYYNWLTRQRY-NH2 (SMILES CC(C)CC(=O)N[C@@H](C)C(=O)N1CCC[C@H]1C(=O)N[C@@H](CCC(=O)O)C(=O)N[C@@H](CCCCNC(=O)COCCOCCNC(=O)COCCOCCNC(=O)CC[C@H](NC(=O)CCCCCCCCCCCCCCCCC(=O)O)C(=O)O)C(=O)N[C@@H](C)C(=O)N[C@@H](CCC(=O)O)C(=O)N[C@@H](CCC(=O)O)C(=O)N[C@@H](CC(=O)O)C(=O)N[C@@H](C)C(=O)N[C@@H](CO)C(=O)N1CCC[C@H]1C(=O)N[C@@H](CCC(=O)O)C(=O)N[C@@H](CCC(=O)O)C(=O)N[C@@H](CC(C)C)C(=O)N[C@@H](CCC(N)=O)C(=O)N[C@@H](CCC(N)=O)C(=O)N[C@@H](Cc1ccc(O)cc1)C(=O)N[C@@H](Cc1ccc(O)cc1)C(=O)N[C@H](C(=O)N[C@@H](CO)C(=O)N[C@@H](CC(C)C)C(=O)N[C@@H](CCCNC(=N)N)C(=O)N[C@@H](Cc1c[nH]cn1)C(=O)N[C@@H](Cc1ccc(O)cc1)C(=O)N[C@@H](Cc1ccc(O)cc1)C(=O)N[C@@H](CC(N)=O)C(=O)N[C@@H](Cc1c[nH]c2ccccc12)C(=O)N[C@@H](CC(C)C)C(=O)N[C@H](C(=O)N[C@@H](CCCNC(=N)N)C(=O)N[C@@H](CCC(N)=O)C(=O)N[C@@H](CCCNC(=N)N)C(=O)N[C@@H](Cc1ccc(O)cc1)C(N)=O)[C@@H](C)O)C(C)C) [Compound 144] | 8.92 nM
3 | Isovaleryl-APEK([AEEA-AEEA-γGlu-C18 diacid])PEEAASPEELQRYYVELRHYYNWLTRQRY-NH2 (SMILES CC(C)CC(=O)N[C@@H](C)C(=O)N1CCC[C@H]1C(=O)N[C@@H](CCC(=O)O)C(=O)N[C@@H](CCCCNC(=O)COCCOCCNC(=O)COCCOCCNC(=O)CC[C@H](NC(=O)CCCCCCCCCCCCCCCCC(=O)O)C(=O)O)C(=O)N1CCC[C@H]1C(=O)N[C@@H](CCC(=O)O)C(=O)N[C@@H](CCC(=O)O)C(=O)N[C@@H](C)C(=O)N[C@@H](C)C(=O)N[C@@H](CO)C(=O)N1CCC[C@H]1C(=O)N[C@@H](CCC(=O)O)C(=O)N[C@@H](CCC(=O)O)C(=O)N[C@@H](CC(C)C)C(=O)N[C@@H](CCC(N)=O)C(=O)N[C@@H](CCCNC(=N)N)C(=O)N[C@@H](Cc1ccc(O)cc1)C(=O)N[C@@H](Cc1ccc(O)cc1)C(=O)N[C@H](C(=O)N[C@@H](CCC(=O)O)C(=O)N[C@@H](CC(C)C)C(=O)N[C@@H](CCCNC(=N)N)C(=O)N[C@@H](Cc1c[nH]cn1)C(=O)N[C@@H](Cc1ccc(O)cc1)C(=O)N[C@@H](Cc1ccc(O)cc1)C(=O)N[C@@H](CC(N)=O)C(=O)N[C@@H](Cc1c[nH]c2ccccc12)C(=O)N[C@@H](CC(C)C)C(=O)N[C@H](C(=O)N[C@@H](CCCNC(=N)N)C(=O)N[C@@H](CCC(N)=O)C(=O)N[C@@H](CCCNC(=N)N)C(=O)N[C@@H](Cc1ccc(O)cc1)C(N)=O)[C@@H](C)O)C(C)C) [Compound 149] | 2.75 nM

The next lines start with the values.

Row | Ki | Binder
4 | 1.17 nM | Isovaleryl-APEK([AEEA-AEEA-γGlu-C18 diacid])PPEEASPEELQRYYVSLRHYYNWLTRQRY-NH2 (SMILES CC(C)CC(=O)N[C@@H](C)C(=O)N1CCC[C@H]1C(=O)N[C@@H](CCC(=O)O)C(=O)N[C@@H](CCCCNC(=O)COCCOCCNC(=O)COCCOCCNC(=O)CC[C@H](NC(=O)CCCCCCCCCCCCCCCCC(=O)O)C(=O)O)C(=O)N1CCC[C@H]1C(=O)N1CCC[C@H]1C(=O)N[C@@H](CCC(=O)O)C(=O)N[C@@H](CCC(=O)O)C(=O)N[C@@H](C)C(=O)N[C@@H](CO)C(=O)N1CCC[C@H]1C(=O)N[C@@H](CCC(=O)O)C(=O)N[C@@H](CCC(=O)O)C(=O)N[C@@H](CC(C)C)C(=O)N[C@@H](CCC(N)=O)C(=O)N[C@@H](CCCNC(=N)N)C(=O)N[C@@H](Cc1ccc(O)cc1)C(=O)N[C@@H](Cc1ccc(O)cc1)C(=O)N[C@H](C(=O)N[C@@H](CO)C(=O)N[C@@H](CC(C)C)C(=O)N[C@@H](CCCNC(=N)N)C(=O)N[C@@H](Cc1c[nH]cn1)C(=O)N[C@@H](Cc1ccc(O)cc1)C(=O)N[C@@H](Cc1ccc(O)cc1)C(=O)N[C@@H](CC(N)=O)C(=O)N[C@@H](Cc1c[nH]c2ccccc12)C(=O)N[C@@H](CC(C)C)C(=O)N[C@H](C(=O)N[C@@H](CCCNC(=N)N)C(=O)N[C@@H](CCC(N)=O)C(=O)N[C@@H](CCCNC(=N)N)C(=O)N[C@@H](Cc1ccc(O)cc1)C(N)=O)[C@@H](C)O)C(C)C) [Compound 142]
5 | 1.19 nM | Isovaleryl-APEK([AEEA-AEEA-γGlu-C18 diacid])PEEDASPEETQKYYVSLRHYYNWLTRQRY-NH2 (SMILES CC(C)CC(=O)N[C@@H](C)C(=O)N1CCC[C@H]1C(=O)N[C@@H](CCC(=O)O)C(=O)N[C@@H](CCCCNC(=O)COCCOCCNC(=O)COCCOCCNC(=O)CC[C@H](NC(=O)CCCCCCCCCCCCCCCCC(=O)O)C(=O)O)C(=O)N1CCC[C@H]1C(=O)N[C@@H](CCC(=O)O)C(=O)N[C@@H](CCC(=O)O)C(=O)N[C@@H](CC(=O)O)C(=O)N[C@@H](C)C(=O)N[C@@H](CO)C(=O)N1CCC[C@H]1C(=O)N[C@@H](CCC(=O)O)C(=O)N[C@@H](CCC(=O)O)C(=O)N[C@H](C(=O)N[C@@H](CCC(N)=O)C(=O)N[C@@H](CCCCN)C(=O)N[C@@H](Cc1ccc(O)cc1)C(=O)N[C@@H](Cc1ccc(O)cc1)C(=O)N[C@H](C(=O)N[C@@H](CO)C(=O)N[C@@H](CC(C)C)C(=O)N[C@@H](CCCNC(=N)N)C(=O)N[C@@H](Cc1c[nH]cn1)C(=O)N[C@@H](Cc1ccc(O)cc1)C(=O)N[C@@H](Cc1ccc(O)cc1)C(=O)N[C@@H](CC(N)=O)C(=O)N[C@@H](Cc1c[nH]c2ccccc12)C(=O)N[C@@H](CC(C)C)C(=O)N[C@H](C(=O)N[C@@H](CCCNC(=N)N)C(=O)N[C@@H](CCC(N)=O)C(=O)N[C@@H](CCCNC(=N)N)C(=O)N[C@@H](Cc1ccc(O)cc1)C(N)=O)[C@@H](C)O)C(C)C)[C@@H](C)O) [Compound 147]
6 | 1.55 nM | Isovaleryl-APEK([AEEA-AEEA-γGlu-C18 diacid])PEEDSSPEEIQRYYVSLRHYYNWLTRQRY-NH2 (SMILES CC[C@H](C)[C@H](NC(=O)[C@H](CCC(=O)O)NC(=O)[C@H](CCC(=O)O)NC(=O)[C@@H]1CCCN1C(=O)[C@H](CO)NC(=O)[C@H](CO)NC(=O)[C@H](CC(=O)O)NC(=O)[C@H](CCC(=O)O)NC(=O)[C@H](CCC(=O)O)NC(=O)[C@@H]1CCCN1C(=O)[C@H](CCCCNC(=O)COCCOCCNC(=O)COCCOCCNC(=O)CC[C@H](NC(=O)CCCCCCCCCCCCCCCCC(=O)O)C(=O)O)NC(=O)[C@H](CCC(=O)O)NC(=O)[C@@H]1CCCN1C(=O)[C@H](C)NC(=O)CC(C)C)C(=O)N[C@@H](CCC(N)=O)C(=O)N[C@@H](CCCNC(=N)N)C(=O)N[C@@H](Cc1ccc(O)cc1)C(=O)N[C@@H](Cc1ccc(O)cc1)C(=O)N[C@H](C(=O)N[C@@H](CO)C(=O)N[C@@H](CC(C)C)C(=O)N[C@@H](CCCNC(=N)N)C(=O)N[C@@H](Cc1c[nH]cn1)C(=O)N[C@@H](Cc1ccc(O)cc1)C(=O)N[C@@H](Cc1ccc(O)cc1)C(=O)N[C@@H](CC(N)=O)C(=O)N[C@@H](Cc1c[nH]c2ccccc12)C(=O)N[C@@H](CC(C)C)C(=O)N[C@H](C(=O)N[C@@H](CCCNC(=N)N)C(=O)N[C@@H](CCC(N)=O)C(=O)N[C@@H](CCCNC(=N)N)C(=O)N[C@@H](Cc1ccc(O)cc1)C(N)=O)[C@@H](C)O)C(C)C) [Compound 145]
